Reference: the supplement of paper PMC10567573

B1: PWWP2B (parent)
chain: TIRLRPRQVLCEKCKSTLSPPEAS
B2: PTPRD (parent)
chain: FICQATGDPRPKIVWNKKGKKVSN

Variants of: B1
Test: protein stability index of a GFP-peptide fusion (GPS, HEK-293T) (PSI 1-6); higher = more stable
Details: c terminus: a fixed tail appended
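Note: lentivirally expressed fusions sorted by FACS into six bins by GFP to DsRed ratio, PSI derived from sequencing read proportions per bin multiplied by bin number.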

Protein stability index of substitutions, site by site:
P6: A 2.76 | L 2.04 | Y 2.04 | E 3.8 | K 2.82 | G 3.25 | T 3.09 | D 3.61 | W 2.05
I2: D 3.68 | R 3.11 | L 3.35 | T 3.85 | K 2.98 | G 3.27 | Y 3.04 | A 3.61 | N 4.05 | W 3 | S 3.64 | C 3.7 | E 3.67 | M 2.76 | H 3.54 | F 3.54 | P 4.11 | Q 3.63 | V 3.24
R3: E 4.37 | P 3.81 | A 3.69 | L 2.71 | D 3.82 | K 3.99 | I 3.04 | C 2.61 | Y 2.82 | S 3.37 | T 3.27 | N 3.8 | H 3.09 | V 2.7 | W 2.98 | M 3.14 | Q 3.61 | G 3.09 | F 2.02
L10: D 3.9 | W 2.48 | E 3.35 | G 3.17 | S 3.13 | V 3.61 | P 3.37 | T 3.43 | Q 3.53 | A 3.44 | R 2.84 | M 2.83 | N 3.53 | C 3.21 | Y 2.5 | F 1.94 | H 3.3 | I 2.83 | K 3.38

Variants of: B2
Test: as above
Details: c terminus: a fixed tail appended

Protein stability index of substitutions, site by site:
N24: L 1.44 | E 2.37 | P 2.31 | I 2.73 | C 2.23 | S 2.03 | M 1.4 | R 3.04 | G 2.22 | V 2.33 | H 2.17 | Q 2.02 | Y 2.08 | K 1.85 | T 1.65 | W 1.92 | A 1.97 | D 2.05 | F 1.89
K21: N 2.17 | Y 1.49 | C 2.26 | E 2.25 | I 2.2 | R 2.49 | W 1.72 | M 2.03 | S 2.28 | A 2.52 | H 1.95 | G 1.9 | V 1.9 | D 1.99 | T 2.45 | L 2.9 | F 1.61 | Q 1.77 | P 2.18
S23: G 2.28 | P 2.15 | W 2.28 | E 2.72 | M 2.29 | Y 2 | K 2.52 | R 2.08 | H 2.37 | A 2.49 | C 2.69 | D 2.52 | L 2.14 | Q 2.07 | I 1.84 | V 2.4 | N 2.12 | T 2.59 | F 2.31
K20: N 1.77 | I 1.88 | G 1.79 | T 1.69 | H 2.71 | W 1.76 | Q 2.56 | C 1.17 | P 2 | E 1.78 | Y 1.48 | R 2.39 | L 1.96 | M 1.8 | D 1.64 | V 1.44 | S 1.94 | A 1.82
V22: Y 2.47 | M 2.35 | D 2.86 | A 2 | L 2.36 | P 2.62 | H 2.46 | N 2.16 | R 2.04 | W 2.35 | S 2.41 | Q 2.47 | T 2.29 | E 2.34 | K 2.66 | F 2.4 | G 2.58 | C 2.13 | I 2.17
G19: R 2.05 | T 2.14 | Q 2.4 | V 1.71 | S 1.7 | Y 1.27 | W 1.84
